Experimental data reported in patent US20120172293A1 (Takeda / Millennium, published 2012).
Non-standard residues stand in square brackets, D forms with d. No end group written: not given here. *: point of attachment. Phe(4-NH2) = Nc1ccc(C[C@H](N)C(=O)O)cc1; Morpholinocarbonyl = O=C(N1CCOCC1)*; hArg = N=C(N)NCCCC[C@H](N)C(=O)O; 4Pal = N[C@@H](Cc1ccncc1)C(=O)O; Cha = N[C@@H](CC1CCCCC1)C(=O)O; 4Amb = NCc1ccc(C(=O)O)cc1; Orn = NCCC[C@H](N)C(=O)O; Ac3c = NC1(C(=O)O)CC1; Aib = CC(C)(N)C(=O)O

How the values were obtained:
human Y2 receptor [1] = biological target: T1, human Y2 receptor (human, UniProt P49146 1-381); test: RBA: [125I]-PYY displacement, hY2R/CHO membranes
T1 construct: whole, on cells; used as membrane fraction of hY2R/CHO cells; also called human NPY2R; hY2R
T1 sequence (looked up): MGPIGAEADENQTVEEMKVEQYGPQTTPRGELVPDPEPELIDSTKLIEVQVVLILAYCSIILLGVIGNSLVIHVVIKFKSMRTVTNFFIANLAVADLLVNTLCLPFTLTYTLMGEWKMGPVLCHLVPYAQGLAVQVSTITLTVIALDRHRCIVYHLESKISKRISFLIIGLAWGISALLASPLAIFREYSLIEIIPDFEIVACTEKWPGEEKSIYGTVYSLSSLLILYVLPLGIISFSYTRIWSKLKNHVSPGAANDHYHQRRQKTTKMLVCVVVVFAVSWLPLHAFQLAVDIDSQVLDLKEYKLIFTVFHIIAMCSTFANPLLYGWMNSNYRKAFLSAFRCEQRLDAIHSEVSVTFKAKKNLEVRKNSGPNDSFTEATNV
Outline: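 Bound radioligand was collected by filtration on PEI-treated GF/C filters, washed with Tris/MgCl₂/NaCl/CHAPS buffer pH 7.4, and counted by scintillation; IC₅₀ values were calculated.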

human Y2 receptor [2] = biological target: T1, human Y2 receptor; test: cell-based or functional assay

Binder | IC50 Ratio (vs PYY(3-36)) (human Y2 receptor [1]) | GBA EC50 Ratio (vs PYY(3-36)), [35S]GTPγS (human Y2 receptor [2])
Ac-S[dP]RH[Cha][Cha]NL[Ac3c]TRQR[Cha]-NH2 (SMILES CC(=O)N[C@@H](CO)C(=O)N1CCC[C@@H]1C(=O)N[C@@H](CCCNC(=N)N)C(=O)N[C@@H](Cc1c[nH]cn1)C(=O)N[C@@H](CC1CCCCC1)C(=O)N[C@@H](CC1CCCCC1)C(=O)N[C@@H](CC(N)=O)C(=O)N[C@@H](CC(C)C)C(=O)NC1(C(=O)N[C@H](C(=O)N[C@@H](CCCNC(=N)N)C(=O)N[C@@H](CCC(N)=O)C(=O)N[C@@H](CCCNC(=N)N)C(=O)N[C@@H](CC2CCCCC2)C(N)=O)[C@@H](C)O)CC1, also called compound No. 131) [Ac-[D-Pro24, Cha27,28,36, Acpc31]-PYY(23-36)] | 7 ratio | 3.6 ratio
Ac-[dY]AS[dP]RH[Cha][Cha]NL[Aib]TRQR[Cha]-NH2 (SMILES CC(=O)N[C@H](Cc1ccc(O)cc1)C(=O)N[C@@H](C)C(=O)N[C@@H](CO)C(=O)N1CCC[C@@H]1C(=O)N[C@@H](CCCNC(=N)N)C(=O)N[C@@H](Cc1c[nH]cn1)C(=O)N[C@@H](CC1CCCCC1)C(=O)N[C@@H](CC1CCCCC1)C(=O)N[C@@H](CC(N)=O)C(=O)N[C@@H](CC(C)C)C(=O)NC(C)(C)C(=O)N[C@H](C(=O)N[C@@H](CCCNC(=N)N)C(=O)N[C@@H](CCC(N)=O)C(=O)N[C@@H](CCCNC(=N)N)C(=O)N[C@@H](CC1CCCCC1)C(N)=O)[C@@H](C)O, also called compound No. 121) [Ac-[D-Tyr21, D-Pro24, Cha27,28,36, Aib31]-PYY(21-36)] | 1.2 ratio | 1.3 ratio
Ac-S[dP]RH[Cha][Cha]NL[Aib]TRQRY-NH2 (SMILES CC(=O)N[C@@H](CO)C(=O)N1CCC[C@@H]1C(=O)N[C@@H](CCCNC(=N)N)C(=O)N[C@@H](Cc1c[nH]cn1)C(=O)N[C@@H](CC1CCCCC1)C(=O)N[C@@H](CC1CCCCC1)C(=O)N[C@@H](CC(N)=O)C(=O)N[C@@H](CC(C)C)C(=O)NC(C)(C)C(=O)N[C@H](C(=O)N[C@@H](CCCNC(=N)N)C(=O)N[C@@H](CCC(N)=O)C(=O)N[C@@H](CCCNC(=N)N)C(=O)N[C@@H](Cc1ccc(O)cc1)C(N)=O)[C@@H](C)O, also called compound No. 142) [Ac-[D-Pro24, Cha27,28, Aib31]-PYY(23-36)] | 3.2 ratio | 1.1 ratio
[4Amb][Orn]AYINLITRQRY-NH2 (N-terminus assumed; SMILES CC[C@H](C)[C@H](NC(=O)[C@H](Cc1ccc(O)cc1)NC(=O)[C@H](C)NC(=O)[C@H](CCCN)NC(=O)c1ccc(CN)cc1)C(=O)N[C@@H](CC(N)=O)C(=O)N[C@@H](CC(C)C)C(=O)N[C@H](C(=O)N[C@H](C(=O)N[C@@H](CCCNC(=N)N)C(=O)N[C@@H](CCC(N)=O)C(=O)N[C@@H](CCCNC(=N)N)C(=O)N[C@@H](Cc1ccc(O)cc1)C(N)=O)[C@@H](C)O)[C@@H](C)CC, also called compound No. 10) [4-Aminomethylbenzoyl-[Orn25, Ala26, Ile28,31]-PYY(25-36)] | 39 ratio | 18 ratio
[4Amb]RAYINLIT[hArg]QRY-NH2 (N-terminus assumed; SMILES CC[C@H](C)[C@H](NC(=O)[C@H](Cc1ccc(O)cc1)NC(=O)[C@H](C)NC(=O)[C@H](CCCNC(=N)N)NC(=O)c1ccc(CN)cc1)C(=O)N[C@@H](CC(N)=O)C(=O)N[C@@H](CC(C)C)C(=O)N[C@H](C(=O)N[C@H](C(=O)N[C@@H](CCCCNC(=N)N)C(=O)N[C@@H](CCC(N)=O)C(=O)N[C@@H](CCCNC(=N)N)C(=O)N[C@@H](Cc1ccc(O)cc1)C(N)=O)[C@@H](C)O)[C@@H](C)CC, also called compound No. 11) [4-Aminomethylbenzoyl-[Ala26, Ile28,31, Har33]-PYY(25-36)] | 260 ratio | 63 ratio
Ac-GLRH[Cha][Cha]NL[Aib]TRQR[Cha]-NH2 (also: Gly1-Leu2 amide bond replaced by (E)-CH=CH alkene, -CONH- bond between Gly23 and Leu24 is substituted by (E) type alkene; also called compound No. 122) [Ac-[Gly23-ψ[(E)-CH═CH]-Leu24, Cha27,28,36, Aib31]-PYY(23-36)] | 17 ratio | 14 ratio
[4Amb]RAYINLITRQR[Phe(4-NH2)]-NH2 (N-terminus assumed; SMILES CC[C@H](C)[C@H](NC(=O)[C@H](Cc1ccc(O)cc1)NC(=O)[C@H](C)NC(=O)[C@H](CCCNC(=N)N)NC(=O)c1ccc(CN)cc1)C(=O)N[C@@H](CC(N)=O)C(=O)N[C@@H](CC(C)C)C(=O)N[C@H](C(=O)N[C@H](C(=O)N[C@@H](CCCNC(=N)N)C(=O)N[C@@H](CCC(N)=O)C(=O)N[C@@H](CCCNC(=N)N)C(=O)N[C@@H](Cc1ccc(N)cc1)C(N)=O)[C@@H](C)O)[C@@H](C)CC, also called compound No. 12) [4-Aminomethylbenzoyl-[Ala26, Ile28,31, Phe(4NH2)36]-PYY(25-36)] | 12 ratio | 5 ratio
Morpholinocarbonyl-E[dP]RH[Cha][Cha]NL[Aib]TRQR[Cha]-NH2 (SMILES CC(C)C[C@H](NC(=O)[C@H](CC(N)=O)NC(=O)[C@H](CC1CCCCC1)NC(=O)[C@H](CC1CCCCC1)NC(=O)[C@H](Cc1c[nH]cn1)NC(=O)[C@H](CCCNC(=N)N)NC(=O)[C@H]1CCCN1C(=O)[C@H](CCC(=O)O)NC(=O)N1CCOCC1)C(=O)NC(C)(C)C(=O)N[C@H](C(=O)N[C@@H](CCCNC(=N)N)C(=O)N[C@@H](CCC(N)=O)C(=O)N[C@@H](CCCNC(=N)N)C(=O)N[C@@H](CC1CCCCC1)C(N)=O)[C@@H](C)O, also called compound No. 174) [Morpholinocarbonyl-[Glu23, D-Pro24, Cha27,28,36, Aib31]-PYY(23-36)] | 1.9 ratio | 1 ratio
Morpholinocarbonyl-E[dP]RH[Cha][Cha]NK[Aib]TRQR[Cha]-NH2 (SMILES C[C@@H](O)[C@H](NC(=O)C(C)(C)NC(=O)[C@H](CCCCN)NC(=O)[C@H](CC(N)=O)NC(=O)[C@H](CC1CCCCC1)NC(=O)[C@H](CC1CCCCC1)NC(=O)[C@H](Cc1c[nH]cn1)NC(=O)[C@H](CCCNC(=N)N)NC(=O)[C@H]1CCCN1C(=O)[C@H](CCC(=O)O)NC(=O)N1CCOCC1)C(=O)N[C@@H](CCCNC(=N)N)C(=O)N[C@@H](CCC(N)=O)C(=O)N[C@@H](CCCNC(=N)N)C(=O)N[C@@H](CC1CCCCC1)C(N)=O, also called compound No. 191) [Morpholinocarbonyl-[Glu23, D-Pro24, Cha27,28,36, Lys30, Aib31]-PYY(23-36)] | 1.4 ratio | 1.4 ratio
Ac-E[dP]R[4Pal][Cha]YNK[Aib]TRQR[Cha]-NH2 (SMILES CC(=O)N[C@@H](CCC(=O)O)C(=O)N1CCC[C@@H]1C(=O)N[C@@H](CCCNC(=N)N)C(=O)N[C@@H](Cc1ccncc1)C(=O)N[C@@H](CC1CCCCC1)C(=O)N[C@@H](Cc1ccc(O)cc1)C(=O)N[C@@H](CC(N)=O)C(=O)N[C@@H](CCCCN)C(=O)NC(C)(C)C(=O)N[C@H](C(=O)N[C@@H](CCCNC(=N)N)C(=O)N[C@@H](CCC(N)=O)C(=O)N[C@@H](CCCNC(=N)N)C(=O)N[C@@H](CC1CCCCC1)C(N)=O)[C@@H](C)O, also called compound No. 139) [Ac-[Glu23, D-Pro24, Pya(4)26, Cha27,36, Tyr28, Lys30, Aib31]-PYY(23-36)] | 2.2 ratio | 1.2 ratio
